Patent US20240382610A1 (TALLAC THERAPEUTICS, published 2024)

T1: Human nectin-4 ECD-6His (TNT-175) (human, UniProt Q96NY8 32-349)
T1 construct: the entry holds the extracellular domain with the C-terminal 6His tag
T1 sequence: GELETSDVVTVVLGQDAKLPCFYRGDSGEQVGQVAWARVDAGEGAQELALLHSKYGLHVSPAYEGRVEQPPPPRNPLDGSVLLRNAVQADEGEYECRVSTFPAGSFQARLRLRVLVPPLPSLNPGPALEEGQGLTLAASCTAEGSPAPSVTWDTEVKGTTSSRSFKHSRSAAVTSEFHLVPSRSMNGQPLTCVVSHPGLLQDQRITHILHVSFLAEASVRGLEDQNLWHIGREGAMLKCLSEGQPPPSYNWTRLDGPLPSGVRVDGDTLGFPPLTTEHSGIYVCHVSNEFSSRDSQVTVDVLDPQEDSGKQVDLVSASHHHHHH

T2: human nectin-4 on cells (human, UniProt Q96NY8 32-510)
T2 construct: whole, on cells; also called PVRL4
T2 sequence (looked up): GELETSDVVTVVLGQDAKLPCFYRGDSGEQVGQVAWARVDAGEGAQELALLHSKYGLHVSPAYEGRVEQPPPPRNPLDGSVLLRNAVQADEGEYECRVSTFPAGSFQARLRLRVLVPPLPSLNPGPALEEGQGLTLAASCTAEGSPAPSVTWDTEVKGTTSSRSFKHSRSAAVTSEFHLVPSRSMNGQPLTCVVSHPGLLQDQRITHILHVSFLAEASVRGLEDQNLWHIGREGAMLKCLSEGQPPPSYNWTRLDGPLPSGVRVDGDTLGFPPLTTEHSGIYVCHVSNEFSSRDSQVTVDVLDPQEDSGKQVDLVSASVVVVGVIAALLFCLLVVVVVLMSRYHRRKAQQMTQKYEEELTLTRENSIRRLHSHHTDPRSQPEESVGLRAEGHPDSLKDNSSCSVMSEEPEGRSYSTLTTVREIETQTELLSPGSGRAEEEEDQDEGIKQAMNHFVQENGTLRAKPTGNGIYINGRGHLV


How the values were obtained:
[1] = molecular target: T1, Human nectin-4 ECD-6His (TNT-175); test: competition ELISA; nectin-4 ECD premixed with TNT203, captured by the coat antibody; % of signal without premix antibody
Method: (§1) Competition experiments of nectin-4 antibodies. ELISA plates were coated overnight at 4° C. with goat anti-mouse IgG at […] in PBS. […] As positive control, nectin-4 was diluted at same concentrations without a premix antibody. Two wells per plate were allocated for diluent only as negative/background control. Plates were washed as previously, 50 μL/well of premix was added to each plate and incubated for one hour. Plates were washed then incubated at room temperature for one hour with Rabbit anti 6× HIS HRP diluted 1:4,000 in diluent. Plates were washed once more and incubated at room temperature for 20 minutes with 50 μL/well of ABTS substrate. […] Binding was measured as an Optical Density (O.D.) value normalized to background and calculated as a percentage of positive control at the lowest nectin-4 dilution for greatest resolution.

[2] = molecular target: T1, Human nectin-4 ECD-6His (TNT-175); test: competition ELISA; nectin-4 ECD premixed with TNT210, captured by the coat antibody; % of signal without premix antibody
Method: as §1

[3] = molecular target: T1, Human nectin-4 ECD-6His (TNT-175); test: competition ELISA; nectin-4 ECD premixed with TNT204, captured by the coat antibody; % of signal without premix antibody
Method: as §1

[4] = molecular target: T1, Human nectin-4 ECD-6His (TNT-175); test: SPR ProteOn, mAb on protein A
Method: Initial testing of binding of nectin-4 antibodies to nectin-4. […] Biotinylated protein A (15 μg/mL) was immobilized to the surface of an NLC chip. 30 nM of purified mAb supernatant was diluted in PBS-T and captured over the protein A surface. Serial dilutions of human nectin-4 were injected over the mAb-coated chips, and binding kinetics were determined. Chips were regenerated using 4:1 v/v of IgG elution butter/4M NaCl.

[5] = molecular target: T1, Human nectin-4 ECD-6His (TNT-175); test: competition ELISA; nectin-4 ECD premixed with TNT206, captured by the coat antibody; % of signal without premix antibody
Method: as §1

[6] = molecular target: T1, Human nectin-4 ECD-6His (TNT-175); test: competition ELISA; nectin-4 ECD premixed with TNT211, captured by the coat antibody; % of signal without premix antibody
Method: as §1

[7] = molecular target: T1, Human nectin-4 ECD-6His (TNT-175); test: competition ELISA; nectin-4 ECD premixed with TNT212, captured by the coat antibody; % of signal without premix antibody
Method: as §1

[8] = molecular target: T1, Human nectin-4 ECD-6His (TNT-175); test: competition ELISA; nectin-4 ECD premixed with TNT207, captured by the coat antibody; % of signal without premix antibody
Method: as §1

[9] = molecular target: T1, Human nectin-4 ECD-6His (TNT-175); test: competition ELISA; nectin-4 ECD premixed with TNT209, captured by the coat antibody; % of signal without premix antibody
Method: as §1

[10] = molecular target: T1, Human nectin-4 ECD-6His (TNT-175); test: competition ELISA; nectin-4 ECD premixed with TNT205, captured by the coat antibody; % of signal without premix antibody
Method: as §1

[11] = molecular target: T1, Human nectin-4 ECD-6His (TNT-175); test: competition ELISA; nectin-4 ECD premixed with TNT208, captured by the coat antibody; % of signal without premix antibody
Method: as §1

[12] = molecular target: T1, Human nectin-4 ECD-6His (TNT-175); test: competition ELISA; nectin-4 ECD premixed with TNT201, captured by the coat antibody; % of signal without premix antibody
Method: as §1

[13] = molecular target: T1, Human nectin-4 ECD-6His (TNT-175); test: competition ELISA; nectin-4 ECD premixed with TNT202, captured by the coat antibody; % of signal without premix antibody
Method: as §1

human nectin-4 on cells = molecular target: T2, human nectin-4 on cells; test: flow cytometry MFI, MNK74 (nectin-4 positive) over AGS (negative)
Method: Cell binding of nectin-4 antibodies. Cell binding of the nectin-4 antibodies was also assessed. MNK74 (nectin-4 positive) and AGS (nectin-4 negative) cells were obtained from ATCC and cultured according to their protocols. Cells were detached with TrypLE (Gibco) and washed by centrifugation for five minutes at 400×g with FACS buffer (PBS+2% FBS). Cells were resuspended in FACS buffer, plated in 96-well format (0.25 e6/well) then pelleted by centrifugation for five minutes at 400×g. Cells were stained at 4° C. in Fixable Viability Dye eFluor 506 (eBioscience) diluted 1:4,000 in PBS. […] Cells were centrifuged, washed once in FACS buffer and stained at 4° C. with Goat F(ab′)₂ anti-Mouse IgG APC (Southern Biotech) diluted 1:400 in FACS buffer for 30 minutes or appropriate anti-human IgG. Cells were centrifuged, washed twice and fixed in 0.5% paraformaldehyde. Cells were analyzed on Attune NxT Flow Cytometer (Thermo Fisher), with subsequent data analysis by Flowjo 10.7 (BD). Dead cells were excluded by gating on the eFluor 506-negative population. […] Binding was assessed by median fluorescent intensity.

% of Positive [1] [%]	% of Positive [2] [%]	% of Positive [3] [%]	Kd [4] [nM]	koff [4] [s⁻¹]	kon [4] [M⁻¹ s⁻¹]	% of Positive [5] [%]	% of Positive [6] [%]	% of Positive [7] [%]	% of Positive [8] [%]	% of Positive [9] [%]	% of Positive [10] [%]	% of Positive [11] [%]	% of Positive [12] [%]	% of Positive [13] [%]	Fold-change of binding to MNK74 compared to control AGS (human nectin-4 on cells) [fold]	Binder
23.3	1.1	2.9	9.14	0.00294	322000	6	17.5	2.2	1.5	20.5	36.9	2.3	1.1	3.1	4.5	TNT-192 (antibody, mouse IgG2a, kappa) heavy: EVQLLESGGGVVQPGRSLRLSCAASGFTFSSYGMHWVRQAPGKGLEWVAVISYDGSNKYYADSVKGRFTISRDNSKNTLYLQMNSLRAEDTAVYYCAKDYGYNWNFFDYWGQGTLVTVSSAKTTAPSVYPLAPVCGDTTGSSVTLGCLVKGYFPEPVTLTWNSGSLSSGVHTFPAVLQSDLYTLSSSVTVTSSTWPSQSITCNVAHPASSTKVDKKIEPRGPTIKPCPPCKCPAPNLLGGPSVFIFPPKIKDVLMISLSPIVTCVVVDVSEDDPDVQISWFVNNVEVHTAQTQTHREDYNSTLRVVSALPIQHQDWMSGKEFKCKVNNKDLPAPIERTISKPKGSVRAPQVYVLPPPEEEMTKKQVTLTCMVTDFMPEDIYVEWTNNGKTELNYKNTEPVLDSDGSYFMYSKLRVEKKNWVERNSYSCSVVHEGLHNHHTTKSFSRTPGRPQGFGPP light: DIVMTQSPSSLSASVGDRVTITCRASQGISNYLAWYQQKPGKVPKLLIYAASTLQSGVPSRFSGSGSGTDFTLTISSLQPEDVATYYCQKYNSAPYTFGQGTKVEIKRADAAPTVSIFPPSSEQLTSGGASVVCFLNNFYPKDINVKWKIDGSERQNGVLNSWTDQDSKDSTYSMSSTLTLTKDEYERHNSYTCEATHKTSTSPIVKSFNRNEC
17	2.1	1.9	3.73	0.00837	2.24e+06	3.1	6	3.7	1.6	5.1	8.4	2.4	2.2	3	5.2	TNT-193 (antibody, mouse IgG2a, kappa) heavy: QVQLQESGPGLVKPSGTLSLTCTVSGGSISSGGYYWAWIRQPPGKGLEWIGSIYYTGSTYYNPSLKSRVTIYVDTSKNQFSLKLSSVTAADTAVYYCARDPFPEPPDAFDIWGQGTMVTVSSAKTTAPSVYPLAPVCGDTTGSSVTLGCLVKGYFPEPVTLTWNSGSLSSGVHTFPAVLQSDLYTLSSSVTVTSSTWPSQSITCNVAHPASSTKVDKKIEPRGPTIKPCPPCKCPAPNLLGGPSVFIFPPKIKDVLMISLSPIVTCVVVDVSEDDPDVQISWFVNNVEVHTAQTQTHREDYNSTLRVVSALPIQHQDWMSGKEFKCKVNNKDLPAPIERTISKPKGSVRAPQVYVLPPPEEEMTKKQVTLTCMVTDFMPEDIYVEWTNNGKTELNYKNTEPVLDSDGSYFMYSKLRVEKKNWVERNSYSCSVVHEGLHNHHTTKSFSRTPGRPQGFGPP light: not shown
32.7	2.4	4.5	4.3	0.000983	229000	11.4	24.6	3	2.5	30.4	54.8	5.3	1.5	4.8	5	TNT-191 (antibody, mouse IgG2a, kappa) heavy: EVQLLESGGGVVQPGRSLRLSCAASGFTFSSYGMHWVRQAPGKGLEWVAVISYDGSNKYYADSVKGRFTISRDNSKNTLYLQMNSLRAEDTAVYYCAKSSYYDYVWGSYRYTDAFDIWGQGTMVTVSSAKTTAPSVYPLAPVCGDTTGSSVTLGCLVKGYFPEPVTLTWNSGSLSSGVHTFPAVLQSDLYTLSSSVTVTSSTWPSQSITCNVAHPASSTKVDKKIEPRGPTIKPCPPCKCPAPNLLGGPSVFIFPPKIKDVLMISLSPIVTCVVVDVSEDDPDVQISWFVNNVEVHTAQTQTHREDYNSTLRVVSALPIQHQDWMSGKEFKCKVNNKDLPAPIERTISKPKGSVRAPQVYVLPPPEEEMTKKQVTLTCMVTDFMPEDIYVEWTNNGKTELNYKNTEPVLDSDGSYFMYSKLRVEKKNWVERNSYSCSVVHEGLHNHHTTKSFSRTPGRPQGFGPP light: EIVLTQSPATLSLSPGERATLSCRASQSVSSSYLAWYQQKPGQAPRLLIYGASSRATGIPDRFSGSGSGTDFTLTISRLEPEDFAVYYCQQYNNWWTFGQGTKVDIKRADAAPTVSIFPPSSEQLTSGGASVVCFLNNFYPKDINVKWKIDGSERQNGVLNSWTDQDSKDSTYSMSSTLTLTKDEYERHNSYTCEATHKTSTSPIVKSFNRNEC
